{
  "source": "the DeepSol protein solubility set",
  "data": [
    {"assay": "soluble on expression in E. coli; label from the status in PepcDB or PDB records", "values": [
      {"sequence": "MSLKHQETTSQQYNFSIIKHGDISTPQGFTAGGMHIGLRANKKDFGWIYSSSLASSAAVYTLNQFKAAPLIVTEDTLQKSKGKLQALVVNSANANSCTGQQGIDDARQTQTWVAQQLQIPSEHVAVASTGVIGEYLPMDKIKTGTEHIKDTNFATPGAFNEAILTTDTCTKHIAVSLKIDGKTVTIGGSAKGSGMIHPNMATMLAFITTDASIESNTLHQLLKSSTDHTFNMITVDGDTSTNDMVLVMANHQVEHQILSQDHPQWETFVDAFNFVCTFLAKAIARDGEGATKLISVNVSGAKSISDARKIGKTIVSSNLVKSAIFGEDANFGRIITAIGYSGCEIDPKCTYVQLNQIPVVDKGMAVLFDEQAMSNTLTHEHVTIDVQLGLGNAAATAYGCDLSYDYVRINASYRTEGHHHHHH", "soluble on expression in E. coli": "soluble"},
      {"sequence": "MSLKIIVVGCGKIGYTIAKVLSEKKDIDVTVVDNNPNIFDKMVEPIDVIFISGNGANEKTLIEAGAKDADLIVSTTNADELNVLCCIMAERLGTKHSIARVRNPEYMLEFNKLWKDLGIDMVINPERQTAREISRILRYHAADDIVTFIGDRVELVSFKVSETPEYFVGKSVSQIFDNNMGILLAIVERENQALIPNGDLIFKESDIIWIMGRPSQIMKFFTLIKKGPKKGQEIMVIGGGKITHYLVELLNRHTTKANIKIIKKDRSKCESLYEALSSASLERRCLFIHGDGTNEELLIDEGIDTMDACVCLTDRDEENVFISLYAMRRGVKKVITKINYIHQNMAKSLGLWLGNIITPQYITAKTVIRYVDGLSGAVGRNIMTIHQIYSGDDGNVDAIEFQVNKKAKCIDTPIKKLKLKKGILIGCISRDFDIIIPSGETEIHIGDRVIIFSKNNDIRDLDDILENEGHHHHHH", "soluble on expression in E. coli": "soluble"},
      {"sequence": "MSLKINIKDDAQAYLADKIPAGSQVILTTDDGSNKYSSLGGSCAIGNKFQLVILKAADPDYTTPLENNAGYVMHVAPADEAYLGNGLNISRWHNALALKDDSGMLDGALAVVDWRDVSPETEAERREKMQTIGTKICEGHHHHHH", "soluble on expression in E. coli": "soluble"},
      {"sequence": "MSLKITDLRVAVVSRAPMTCPIIRIDTNQGIYGLGEVRDGASKNYALMLKSRLLNENPCNVDKLFRKIKQFGGHARQGGGVCGVEMALWDLAGKAYNVPVHQMLGGKFRDRIRCYADTTESHDPKVYGQRLKARRDEGFTWLKMDLGVDLVADVPGALTMPVGERINGNPMVAHMFTGNEITEKGIQLMCDYVAQIREIVGMDIPLSADHFGHIGVNSCIRLGKALTKYNMAWLEDMIPWQQTALLKQIADAVDIPILTGEDIYLKEPFIELCKAHAVDIIHPDLATSGGILETKKIGDAAQELGVAMAMHFAGSPVSCMANVHCAAATENFLVLENHSVDVPWWGDLVEGVSKPIVSKGFITVPNGPGLGVTLNDEVVKQHLGEPGYFEATPYWNVDRSNDRQWSEGHHHHHH", "soluble on expression in E. coli": "not soluble"},
      {"sequence": "MSLKITDVKVWLVQGIKYNWTLLKIYTDEGYTGVGEATNWPGSPIVFEAAKHVGQRIIGLDPMKTDFIWTKLYRDLNWIGPYGASLCAISGIDMALLDLKAKVLGVPCYELLGGAYRKDIQLYANYWFTGGGHNEADYAAQARRVMDAGFTGLKFDPFAHTNYFYGEDLASNLTLTAEQQDLAFNVSKAVREAVGSECDIMIETHAMLNYRVAVKMAERLAKLDITWYEEPAGPESSQTLRAMRERIPSDVAICVGERHYTRFGIRSLLEKHVCDVIMPDITRCGGPSEMKRMATMAEAYNVLIAPHNPNGPLSTLASSHVCAAIPNFFRQEFMFNDVPWRDTVIDHPIAEMVYDGHLHLSDRPGLGVDLVEEEMEKHPGITTDAPDNFYIEGHHHHHH", "soluble on expression in E. coli": "soluble"},
      {"sequence": "MSLKITDVRVIRFRTHADRWDIGHARLRPAAEVSQTVTCIDTDAGLTGWFFGGGKHGDQDGMSPDEQRLIEGRVRDLLLGVDPFDREAVWKWMWVANLPEVAQSVIDCALWDLAGRAAGQPVYKLMGAARDKVPAYASTYPNIGPPQVYAEHALACRAEGYKAYKIHPHYFWNPDTGLPTKGRPSNIRADIETINLVREAVGPDMVLMYDVWGTYHTIEETIKVGRELERNDFYWFEHPMPEYRVESYRRLCRELSIPILAPEIAAGGVFTRAEWILQGASDMSRMDIRRGGVTGCRKTAVVCEAFGQRCEIHMAGWGNLQVMGATSQDTSEWYEKGLLAPGVDYDAPHPYLERNCDPMDAEGHVALPTAPGLGYEPIWDYIDDNRVPSEGHHHHHH", "soluble on expression in E. coli": "soluble"},
      {"sequence": "MSLKITHTEIYRFSIPMEPFVIATGTMHFAQNVLIRIHTDNGLYGLGECSAFPMIVGENQDTCLVMAREFAKLLPGKDPLDIPGRMNDLLGYADRNTTIKSAFDMALFDLAAKHAGQPLYQFLGGNRKKVETDMTIGISSPEKMAQLAQHYQAQGCSILKVKLGKDIHEDIERVAQIRAAVGGMMTIRLDANQGWSFDDALYGLGALAKYDIEFCEQPMRSWYDDRLPELQLNSPIAIMADESCYNHHDARRLINSRSCEYLNIKFSKSGGILEAQKIHEVALQHGMKCMMGGMLESRLAATAKLHFALSAPNIVFFDLDTCMLGHLIDPVVGGMSYEGFILDVPEAPGIGADADPAFLDECESWRIEGHHHHHH", "soluble on expression in E. coli": "soluble"},
      {"sequence": "MSLKKILVIGSKGFIGSNLVAYYEKINTIDVWGCDVISDYSSRNYFLIDASNSDFNEVFQQVAFDVCINCSGSASVPLSMINPGRDFHLNVLNVFNMLDSIRKNIPSCKFVNLSSAAVYGNPESLPIKEDTPINPLSPYGWHKLQSEILCKQFNQNFALHTCSLRIFSAYGIGLRKQLFWDWFQKINDAASMSIYGTGKESRDFIYIDDLIQCIECVVARGDFNAGIYNIANGQEIYIADAIKEFKKASGKSFEYTFTQETRPGDPINWVADISKLKTLGYQQQVTFEKGVEILMKWLQQEKEGHHHHHH", "soluble on expression in E. coli": "soluble"},
      {"sequence": "MSLKKYIITLLFCTLFCHLGIAQGLKSVSILGDSYSTFEGYVQPDTNFVWYLKTPPKGRKTDMVSVRNTWWHQFIKENNYRLCVNNSFSGATICHTGYRSEDYSDRSFITRMKALGCPDIIFIFGATNDYWAKSPLGEYKYADWSKKDLYSFRPAMAYMLDTMIDYYPNVEIYFLLNDGLGNEITESVRTICKHYQIDCIELKELDKMSGHPSVKGMKQISEQVKAYMNSRQNEGHHHHHH", "soluble on expression in E. coli": "not soluble"},
      {"sequence": "MSLKLLVLIDGSKWSQKAALHAFSIAKRKNAKVILFSVLDRREAKALAFHLSMRSDSLGKIKEFEETIWRETKKSVKEVITTLLELGRREGINCSFKIVEGSAKEEIIKEANSGKYSMVIMGAYGRSGKTRIGSLLEEVVGQIRIPVMIVREGHHHHHH", "soluble on expression in E. coli": "soluble"},
      {"sequence": "MSLKLVENLALKYYDKVVDLRHQIHMHPELEFEEENTAHLVCKILDEFGIKYQKNIAKTGILAIIEGKKKSQKKPKCVLLRADMDALPVQEKTNLSYASKIDGKMHACGHDGHTAGLLGAALILNELKDEFCGTIKFMFQPAEEGSGGAKPMIESGVLENPYVDAVFGCHLWGPLLENTAQIVSGEMMAGTDIFDLEFIGRGGHGAHPHTCIDPIIMTTQFVNNIQSVISRRLAPYEAGVITVGQICAGTTYNVIPTNAYLKGTVRFLNDKTQDILKSSLEEVAAATAKSNGGDYKLKYTKEFPPLINDEKAVLIARKAFAKVLGEENIIVSSKPDMGAEDFAFLTRERMGAYVFVGISKDLNHPALHHSSTFCWDDENLKVLMQGDVMMALEFLNEGGSHHHHHH", "soluble on expression in E. coli": "soluble"},
      {"sequence": "MSLKLVRKFARDIEVDELAICIPLEYKSACLIYELSRYTNVYAAKLDDFSTKPEVVSWLKEKGVEVKMKRDVVNAEYFLDCAAVLSRVAVKSGKERLKVVELTKTGEEYLRKMDVRMKAISLDSSTLKGTGENTHGTAFGLLDALLRLNVFLPGKKALILGFGRVGRGCARLLKSVGCDVAVWDNDETRQIEALYEGFRVEKDFTAEVVVTCTGVKGVLGKEELEEISDGSIILNMGAEMEIEPAGELIKDYGLVKEYEIAGKRYFLVADGYAANLALGSGTPIEVMDRTFSAAILALNHLSRSDFDGIIPLPHHIESTILEAIMMYEGHHHHHH", "soluble on expression in E. coli": "not soluble"},
      {"sequence": "MSLKNNVYILADSVVTPLGQSTEENMEKLYSLQSAIRTYTHPQIGTFYASKFEDGKSFQIKKDAAGKTKIERLFISCIEKALERTEIDVENANVLFVFASTKGNVEYLTDETFDKNRLRIGITAQDVTAYFNNPNTPIVVSNACISGLQAIQYGYEVLQDNRYTHVVVTGADCFSEFILSGFHSFQALSPFPCKPFDKARAGLSLGEGCGTLILSNKKTDAAAIEILSVVSSNDANHLSGPSRTGEGLSSAILGAINEAGITAEQIDVISAHGTATLYNDEMESMAFKTANLEAKAVYSVKGNIGHTLGAAGIIETIYLAQSLQNNMLVPSIGFTETGTSVELNVTRQSTLKTMQIGLKTASGFGGGNTALLLKKEGHHHHHH", "soluble on expression in E. coli": "not soluble"},
      {"sequence": "MSLKNTFVYQAEKPVIKLLQITDPHLFKDESAELLGVNTQASFAQVLKEIQQENNEFDVILATGDLVQDSSDEGYIRFVEMMKPFNKPVFWIPGNHDFQPKMAEFLNQPPMNAAKHLLLGEHWQALLLDSQVYGVPHGQLSQHQLDLLKETLGKNPERYTLVVLHHHLLPTNSAWLDQHNLRNSHELAEVLAPFTNVKAILYGHIHQEVNSEWNGYQVMATPATCIQFKPDCQYFSLDTLQPGWREIELHSDGSIRTEVKRIQQAEFFPNMQEEGYEGGSHHHHHH", "soluble on expression in E. coli": "soluble"},
      {"sequence": "MSLKPAPRWPLHPAPREGEALSSWLNRVALCYHMEVSELLEHDLGHAQVDDLDTAPPLALLAMLSQRSGIEPDRLRCMSFAGWVPWLLDSLDDQIPDALETYAFQLSVLLPKLRRRTRSITSWRAWLPSQPIHRACPLCLNDPANQAVLLAWKLPLMLSCPLHGCWLESYWGVPGCQRRSNTDPWRRGEGHHHHHH", "soluble on expression in E. coli": "not soluble"},
      {"sequence": "MSLKPSLDELESLLIARHTPNIHNKLKKGKVAILGLGGLGSNIAISLARIGVGELLLIDYDVVEPSNLNRQQYFIDDIGKLKTDAMIENIKKINPFIKLNKRDIFLNKNNMDTIKDSDLIIEAFDDASCKAQVCNYVLINLKDKYLIASSGMAGYYDSNIITTKKIKDRFYICGDFVNEAKFGEEGHHHHHH", "soluble on expression in E. coli": "not soluble"},
      {"sequence": "MSLKPVGLNYFSEKKGLLTDEDLMEDEHYCGMSFRGDEKKSIFGIFDGYGGIGAARETRRTLPNIIQKLIEQGLDSKEILEKGFSEVDEGMNKEEFMDIGCTCTLIYIWEEDNKVYIRSGNVGDSTCFVKKMNKGKPEIITLSQDHKVTSACEQKRMKEAGITLVEGQKRINGVGVARTLANHFVKNLNIGMIGTPYISPAIVLESGDEIILCSDGIWDVITPEKAFEMMENTQVSEAPKVIMEESMKITECRDNVTVIVVKILEGHHHHHH", "soluble on expression in E. coli": "not soluble"},
      {"sequence": "MSLKQNGGLTDLTGSVAFGTTPLSPGVTDRLYYPSRRNKGAALSDDKACFLSVPRSGGKGPPPEYDGAGRVTLFSGYLFDRERLARKLGGDHSWPDVRLAAAWIAHHGLDRLADLAGDYALSHWDPGARRLFLAVAPMGSRLLYWHRVGTICHFATTVAGLHRIPDIPRVVDPLHLTARFSAMVGDPTRTVYKDIHQIVPGDMLVADVNANRYVPLWRPDAERRLRLANEREYLEAADELLERAVARRLQAAHAPAFLSSGGLDSAAMLTTASRLAGDRKVRSYTIVPSPGLCVTADRGWYGDERAKVADLAASHTNLDIRLCHSLVPSPLETNPAHLFMATGLPCMIANQIGWLDIAFQQMQQAGHDAVLSGQSGNFTFSYDGNLCFADLIREGRPLTALRLLAQVARYKQQGFAPMVRHRVVVPLLPDAFYYGQRRWRGRPHPLADRTLTRPGWREKVGLDDYLADHGEQPFQERDSRSRQQIIHFMLKRRAMTLPNAHALETVRGTHYRDVYADRDLLEFILAIPRDQFILDGRNRSLARRLLAMRGVPDSIVNERAIGQEGHHHHHH", "soluble on expression in E. coli": "not soluble"}
    ]}
  ]
}
